According to PMC6821365:
Changes are numbered by the printed parent chain.

Columns and labels:
yedK H160A = target: T1, yedK H160A (Escherichia coli (gene from BL21 …, UniProt P76318 2-222, H160A)); assay: ITC
T1 sequence: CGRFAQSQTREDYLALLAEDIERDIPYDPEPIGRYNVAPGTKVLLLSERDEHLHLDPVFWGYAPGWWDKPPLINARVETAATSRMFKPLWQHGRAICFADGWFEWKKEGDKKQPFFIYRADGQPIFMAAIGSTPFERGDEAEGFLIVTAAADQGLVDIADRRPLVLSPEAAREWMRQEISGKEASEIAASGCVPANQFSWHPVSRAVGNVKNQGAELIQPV

yedK W106A = target: T2, yedK W106A (Escherichia coli (gene from BL21 …, UniProt P76318 2-222, W106A)); assay: ITC
T2 sequence: T1 sequence with W105A, A159H

In the case of CGGTCGATTC (ssDNA) [ssDNA], the Kd (yedK H160A) is reported as 1.4 µM and the Kd (yedK W106A) is reported as 18.7 µM.
